Measurements: the supplement of paper PMC7877785
± gives the uncertainty stated by the source.

Assay: self-splicing fitness, log relative to wild type (ln ratio); higher = more splicing; Tetrahymena group I intron in knt gene, E. coli kanamycin selection, DiMSum; sequences stand for … in CUCUCU…GGAGGGAAAAGUUAUCAGGCAUGCACCUGGUAGCUAGUCUUUAAACCAAUAGAUUGCAUCGGUUUAAAAGGCAAGACCGUCAAAUUGCGGGAAAGGGGUCAACAGCCGUUCAGUACCAAGUCUCAGGGGAAACUUUGAGAUGGCCUUGCAAAGGGUAUGGUAAUAAGCUGACGGACAUGGUCCUAACCACGCAGCCAAGUCCUAAGUCAACAGAUCUUCUGUUGAUAUGGAUGCAGUUCACAGACUAAAUGUCGGUCGGGGAAGAUGUAUUCUUCUCAUAAGAUAUAGUCGGACCUCUCCUUAAUGGGAGCUAGCGGAUGAAGUGAUGCAACACUGGAGCCGCUGGGAACUAAUUUGUAUGCGAAAGUAUAUUGAUUAGUUUUGGAGUACUCGUGGUCG
Summary of the method: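 Colonies from six replicate transformations of E. coli BL21(DE3) were pooled and amplicon-sequenced on an Illumina HiSeq 2500. The library placed an intron with all eight P1ex-region nucleotides randomised inside the knt kanamycin-resistance gene on pET-22b(+), and cells grew overnight at 37°C or 30°C on LB agar with or without 25 μg/mL kanamycin (plus 100 μg/mL carbenicillin, 50 μM IPTG, 0.2% rhamnose). Fitness is the DiMSum error-weighted combination of wild-type-normalised replicate fold changes, kanamycin versus none.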

| Sequence | self-splicing fitness (ln) (30 °C) | self-splicing fitness (ln) (37 °C) |
| --- | --- | --- |
| AGUGAGCAAUAUUACGAGAA | -1.8 ± 0.48 |  |
| GUCCAGCAAUAUUACGAUCU | -2.44 ± 0.16 | -0.0861 ± 0.12 |
| ACGAAGCAAUAUUACGGACU | 0.0455 ± 0.045 | 0.53 ± 0.065 |
| UCAAAGCAAUAUUACGAUCG | -0.659 ± 0.085 | -0.141 ± 0.11 |
| CUGAAGCAAUAUUACGGCUG | -0.126 ± 0.074 | 0.668 ± 0.11 |
| ACCUAGCAAUAUUACGACAG | -2 ± 0.089 | -1.34 ± 0.12 |
| UCGCAGCAAUAUUACGAUCA | -1.27 ± 0.15 | -1.18 ± 0.15 |
| CCACAGCAAUAUUACGGAGA | -3.01 ± 0.21 | -1.77 ± 0.17 |
| UUAGAGCAAUAUUACGUUAC |  | -2.17 ± 0.46 |
| CCCGAGCAAUAUUACGGAGU | -3.46 ± 0.25 | -2.87 ± 0.22 |
| ACAAAGCAAUAUUACGUUCU | -0.539 ± 0.055 | -0.567 ± 0.065 |
| CUCAAGCAAUAUUACGGGAA | -2.51 ± 0.16 | -1.19 ± 0.14 |
| AUGAAGCAAUAUUACGGGCC | -1.73 ± 0.29 | -0.73 ± 0.22 |
| GGUAAGCAAUAUUACGAACA | -0.0165 ± 0.19 | -0.383 ± 0.18 |
| CCAGAGCAAUAUUACGGAAC | -2.32 ± 0.2 | -3.08 ± 0.36 |
| AGUAAGCAAUAUUACGGGCC | -1.48 ± 0.2 | -0.26 ± 0.15 |
| UUGGAGCAAUAUUACGAUUC |  | -1.85 ± 0.32 |
| CUGAAGCAAUAUUACGAAAG | -0.525 ± 0.12 | -0.0848 ± 0.16 |
| AGAAAGCAAUAUUACGAUGU | -0.998 ± 0.063 | -0.229 ± 0.083 |
| CAUAAGCAAUAUUACGGCCU | -3.3 ± 0.37 | -2.79 ± 0.4 |
| GUUGAGCAAUAUUACGCGUU | -4.25 ± 0.46 | -2.15 ± 0.28 |

| Sequence | self-splicing fitness (ln) (30 °C) | self-splicing fitness (ln) (37 °C) |
| --- | --- | --- |
| CCUCAGCAAUAUUACGUACU | -3.42 ± 0.22 | -1.98 ± 0.22 |
| GGCGAGCAAUAUUACGUUGU | -3.25 ± 0.18 | -2.48 ± 0.25 |
| CACGAGCAAUAUUACGCUAU | -2.42 ± 0.21 | -2.56 ± 0.28 |
| CGGUAGCAAUAUUACGACCC | 0.488 ± 0.48 | -1.29 ± 0.44 |
| AUGCAGCAAUAUUACGGCCG | -1.62 ± 0.27 | -1.05 ± 0.3 |
| AACCAGCAAUAUUACGCGCU | -2.01 ± 0.13 | -0.894 ± 0.13 |
| GGCUAGCAAUAUUACGGUAC | -1.91 ± 0.17 | -0.733 ± 0.14 |
| GCAGAGCAAUAUUACGAAUC | -1.94 ± 0.33 | -1.15 ± 0.33 |
| AGCGAGCAAUAUUACGGCCG | -2.6 ± 0.34 | -1.72 ± 0.26 |
| UCAUAGCAAUAUUACGGACG | -1.17 ± 0.15 | -1.11 ± 0.17 |
| AUCAAGCAAUAUUACGUCCG | -2.1 ± 0.14 | -1.14 ± 0.16 |
| AUAUAGCAAUAUUACGACGC | -1.91 ± 0.27 | -0.93 ± 0.29 |
| CCGCAGCAAUAUUACGCUUU | -3.86 ± 0.18 | -2.97 ± 0.18 |
| GUUGAGCAAUAUUACGAAAU | -3.35 ± 0.44 | -0.897 ± 0.27 |
| AGUAAGCAAUAUUACGUUAC | -3.26 ± 0.24 | -2.61 ± 0.27 |
| UAUUAGCAAUAUUACGGUUA | 0.108 ± 0.097 | -0.239 ± 0.11 |
| UAAGAGCAAUAUUACGGUCA | -1.77 ± 0.18 | -2.52 ± 0.17 |
| GGCUAGCAAUAUUACGGCGC | 0.164 ± 0.14 | 0.272 ± 0.16 |
| AAAAAGCAAUAUUACGCUUC | -3.38 ± 0.3 |  |
| CGUAAGCAAUAUUACGGAGA | -2.79 ± 0.24 | -2.28 ± 0.29 |
| UUGCAGCAAUAUUACGCUAG | -2.94 ± 0.23 | -2.44 ± 0.24 |

| Sequence | self-splicing fitness (ln) (30 °C) | self-splicing fitness (ln) (37 °C) |
| --- | --- | --- |
| CACAAGCAAUAUUACGACAC | -3.12 ± 0.11 | -2.59 ± 0.12 |
| GUACAGCAAUAUUACGAGAG | -2.62 ± 0.29 | -2.64 ± 0.25 |
| GGCUAGCAAUAUUACGGGGC | -3.67 ± 0.47 | -2.08 ± 0.28 |
| CGCGAGCAAUAUUACGAGGG | -3.3 ± 0.22 | -2.71 ± 0.22 |
| ACUCAGCAAUAUUACGCGAA | -1.48 ± 0.061 | -0.686 ± 0.069 |
| CCUGAGCAAUAUUACGGAAU | -4.68 ± 0.23 | -2.85 ± 0.16 |
| AUGUAGCAAUAUUACGGGCU | -2.18 ± 0.16 | -0.877 ± 0.16 |
| AAAGAGCAAUAUUACGUGGU | -4.52 ± 0.27 | -3.08 ± 0.18 |
| ACUUAGCAAUAUUACGAGGC | -3.25 ± 0.5 |  |
| AUUUAGCAAUAUUACGUAUG | -2.35 ± 0.34 | -0.838 ± 0.41 |
| GAUCAGCAAUAUUACGAUGA | -0.0415 ± 0.095 | 0.313 ± 0.12 |
| CGCCAGCAAUAUUACGACCU | -3.15 ± 0.36 | -2.15 ± 0.28 |
| UAUAAGCAAUAUUACGAAUA | -1.55 ± 0.24 | -0.822 ± 0.19 |
| UUCUAGCAAUAUUACGCUCA | -0.563 ± 0.15 | -0.208 ± 0.19 |
| CUGCAGCAAUAUUACGAGUU | -3.55 ± 0.21 | -2.83 ± 0.28 |
| GUAUAGCAAUAUUACGCCAU | -2.96 ± 0.32 | -1.6 ± 0.22 |
| AUACAGCAAUAUUACGGUAU | -3.46 ± 0.18 | -2.99 ± 0.2 |
| AGCAAGCAAUAUUACGACUU | 0.234 ± 0.098 | -0.294 ± 0.11 |
| GUAUAGCAAUAUUACGCAAU | -1.98 ± 0.22 | -2.85 ± 0.4 |
